How the values were obtained:
[1] = target: T1, methylated H3K4 peptides (panel of biotinylated histone tail peptides) (Homo sapiens, UniProt P68431); assay: Histone peptide binding (pull-down) assay with biotinylated histone peptides; details: for preference for methylation state of H3K4 peptides: pull-down with biotinylated histone peptides, anti-GST immunoblot
T1 construct: purchased Upstate Biotechnology
Procedure: (§1) FIG. 3 The ASHH2 CW domain binds histone H3 tails methylation on lysine 4. (A) Cartoon of the ASHH2 protein with CW, AWS and KMT (SET domain) indicated. The two recombinant proteins used in this study are also illustrated. (B) SDS-PAGE of purified GST and GST-ASHH2-CW. (C) Pull-down assay using biotinylated histone peptides and recombinant GST, GST-ASHH2-CW and GST-ING2-PHD as indicated. The ratio of proteins and peptides were 0.5 μg:0.5 μg. (D) Pull-down assay using biotinylated histone peptides and recombinant GST and GST-ASHH2-CW as indicated. The ratio of proteins and peptides were 1.0 μg:0.5 μg. (E) Surface plasmon resonance traces from an experiment with immobilised, biotinylated H3K4me1 peptide and GST-ASHH2-CW. (F) Dissociation constants for GST-ASHH2-CW and the three H3K4me peptides indicated calculated from surface plasmon resonance data. The number of replicates are indicated.
(§2) FIG. 4 CW domains from four different proteins bind methylated H3K4 peptides. (A) Cartoons of the proteins studied: human MORC4, Arabidopsis VAL1, and human ZCWPW1. (B, C) Pull-down assay using biotinylated histone peptides and (B) recombinant GST, GST-Val1-CW and GST-MORC4-CW or (C) GST, GST-ASHH2-CW, and GST-ZCWPW1-CW, as indicated. The ratio of proteins and peptides were equimolar.
(§3) FIG. 7 Probing the predicted histone tail binding site with mutant CW domains. […] The predicted binding site for the histone tail is indicated as in FIG. 6D. (B and C) Pull-down assays using biotinylated histone peptides and recombinant GST and GST-ASHH2-CW mutant proteins as indicated. The ratio of proteins and peptides were 1.0 μg:0.5 μg.
(§4) Histone peptide binding assays were performed as described by Shi et al (2006) with biotinylated histone peptides from Upstate Biotechnology. The protein-peptide ratio used is indicated in the legends to the figures. Bound proteins were visualized by immunoblotting using rabbit anti-GST antibodies Z-5 (SC-456) from Santa Cruz at a 1:20,000 dilution, and a donkey anti-rabbit HRP conjugate (Amersham NA934) at a 1:10,000 dilution.

[2] = tested on: H3K4me2 in Arabidopsis chromatin; assay: Chromatin pulldown (ChPD), western blot quantification, H3K4me2; type: binding; details: chromatin from Arabidopsis seedlings, anti-H3K4me2 western blot
Source text: (§5) FIG. 8 Chromatin pulldown (ChPD) using the ASHH2 CW. […] Modified histones were visualised by western blot using antibodies as indicated. Molecular size markers are shown to the right. (B) qPCR with primers for assumed ASHH2 target genes on DNA isolated from seedling chromatin pulled down with GST-CWASHH2. ChPD with GST alone was used as a negative control. Data are shown as percent of input. The Ta3 retrotransposon was used as reference. Standard deviations are shown. (C) ChIP using antibodies against H3K4me1, H3K4me3 and H3K36me3 and primers for the same genes as in (B). Data are shown relative to Ta3. (D) ChPD from wt and ashh2 mutant seedlings as in (A) using antibodies as indicated. ChPD with GST alone was used as a negative control and histone H3 as reference.
(§6) Chromatin pull-down (ChPD) was performed using crude chromatin in ChIP dilution buffer (1.1% Triton X-100, 1.2 mM EDTA, 16.7 mM Tris-HCL pH 8, 167 mM NaCl) prepared as for ChIP (Gendrel et al., 2005) incubated with 8 μg GST-CW fusion protein and control proteins (only GST alone, or together with GST-CW-W874A and GST-WIYLD) over night. For western blotting, the pulled down chromatin was washed three times in ChIP dilution buffer, run on a 15% SDS-PAGE and blotted onto a PVDF membrane. […]

[3] = target: biotinylated H3 peptide dimethylated on lysine 4 (H3K4me2) (Homo sapiens, UniProt P68431); assay: Surface plasmon resonance (BIAcore T100) binding to immobilised H3K4me2 peptide; details: GST-tagged protein 0.1 μM to 10 μM, HBS-P buffer
Procedure: (§7) Surface plasmon resonance binding assays were performed on a BIAcore T100 biosensor according to the manufacturers protocols using immobilized, biotinylated H3 peptides monomethylated (0.54 ng), dimethylated (0.24 ng), or trimethylated (0.48 ng) on lysine 4. GST-tagged ASHH2 CW protein in five different concentrations in a range from 0.1 μM to 10 μM was injected for 2 min at a flow rate of 10 μl/min. Each sample injection was followed by injection of HBS-P buffer (10 mM HEPES pH 7; 150 mM NaCl) alone for 5 min at a flow rate of 5 μl/min. Kd values were obtained using the Biacore T100 Evaluation software 2.0.1. Measurements were repeated 2 to 5 times.

[4] = tested on: methylated H3K4 peptides (panel of biotinylated histone tail peptides); assay: Histone peptide binding (pull-down) assay with biotinylated histone peptides; details: panel incl. trimethylated H3K27 and H3K36 peptides
Procedure: as §1, §2, §3, §4

[5] = target: T2, three methylated forms of H3K27-peptides (Homo sapiens, UniProt P68431); assay: Histone peptide binding (pull-down) assay, methylated H3K27 peptides; details: protein:peptide 1.0 μg:0.5 μg
T2 construct: purchased Upstate Biotechnology
Procedure: as §1, §4

[6] = tested on: H3K4me1 in Arabidopsis chromatin; assay: Chromatin pulldown (ChPD), western blot quantification, H3K4me1; type: binding; details: chromatin from Arabidopsis seedlings, anti-H3K4me1 western blot
Source text: as §5, §6

[7] = target: biotinylated H3 peptide trimethylated on lysine 4 (H3K4me3) (Homo sapiens, UniProt P68431); assay: Surface plasmon resonance (BIAcore T100) binding to immobilised H3K4me3 peptide; details: GST-tagged protein 0.1 μM to 10 μM, HBS-P buffer
Procedure: as §7

H3K4me3 peptide = target: T3, H3K4me3 peptide (Homo sapiens, UniProt P68431); assay: Histone peptide binding (pull-down) assay, H3K4me3 peptide; details: protein:peptide 0.5 μg:0.5 μg
T3 construct: purchased Upstate Biotechnology
Procedure: as §1, §4

[8] = tested on: H3K4 methylated chromatin; assay: Chromatin pulldown (ChPD) with western blot detection; type: binding; details: antibodies against each of the three H3K4 methylation states; Arabidopsis seedling chromatin
Source text: as §5, §6

[9] = target: biotinylated H3 peptide monomethylated on lysine 4 (H3K4me1) (Homo sapiens, UniProt P68431); assay: Surface plasmon resonance (BIAcore T100) binding to immobilised H3K4me1 peptide; details: GST-tagged protein 0.1 μM to 10 μM, HBS-P buffer
Procedure: as §7

[10] = tested on: chromatin associated with genes regulated by ASHH2; assay: Chromatin pulldown (ChPD) followed by qPCR on ASHH2 target genes; type: binding, Arabidopsis; details: seedling chromatin; GST alone as negative control
Source text: as §5, §6

B1: GST-ZCWPW1-CW: human ZCWPW1 CW domain (nt 714-942, from HEK293 cDNA) as GST fusion protein (protein)
chain: IRDQQKGEISGFGQCLVWVQCSFPNCGKWRRLCGNIDPSVLPDNWSCDQNTDVQYNRCDIPEETWTGLESDVAYAS
modifications: left off: a dimerising Fc or GST
notes: human ZCWPW1 CW domain (nt 714-942, from HEK293 cDNA) as GST fusion protein
preference for methylation state of H3K4 peptides [1]: clear preference for H3 Kme2 and me3 peptides

B2: GST-Val1-CW: Arabidopsis VAL1 CW domain (nt 1575-1797) as GST fusion protein (protein)
chain: VFGKRTIVTTKPSGEQERWATCDDCSKWRRLPVDALLSFKWTCIDNVWDVSRCSCSAPEESLKELENVLKVGRE
modifications: left off: a dimerising Fc or GST
notes: Arabidopsis VAL1 CW domain (nt 1575-1797) as GST fusion protein
preference for methylation state of H3K4 peptides ([1]; listed as VAL1): strongest preference for K4me3
preference for methylation state of H3K4 peptides ([1]; listed as VAL1 CW): clear preference for H3 Kme2 and me3 peptides

B3: W865A: GST-ASHH2-CW mutant, tryptophan 865 to alanine (protein)
chain: MVVDVTIEDSYSTESAAVRCDDCFKWRRIPASVVGSIDESSRWICMNNSDKRFADCSKSQEMSNEEINEELGIGQDEADAYDCDAAKRG
modifications: left off: a dimerising Fc or GST; large carriers; small tags and cut ends
notes: GST-ASHH2-CW mutant, tryptophan 865 to alanine
histone tail binding of mutant ASHH2 CW domains ([1]; pull-down, protein:peptide 1.0 μg:0.5 μg): abolished histone tail binding

B4: GST-MORC4-CW: human MORC4 CW domain (nt 1236-1422, from HEK293 cDNA) as GST fusion protein (protein)
chain: TVARPIPKVPDQTWVQCDECLKWRKLPGKIDPSMLPARWFCYYNSHPKYRRCSVPEEQELTD
modifications: also: GST fusion partner not part of the given chain
notes: human MORC4 CW domain (nt 1236-1422, from HEK293 cDNA) as GST fusion protein
preference for methylation state of H3K4 peptides [1]: preference for H3K4me2

B5: GST-ASHH2-CW: Arabidopsis ASHH2 CW domain (nt 2547-2811) expressed and purified as a GST-fusion protein from bacteria (protein)
chain: VVDVTIEDSYSTESAWVRCDDCFKWRRIPASVVGSIDESSRWICMNNSDKRFADCSKSQEMSNEEINEELGIGQDEADAYDCDAAKRG
modifications: left off: a dimerising Fc or GST
notes: Arabidopsis ASHH2 CW domain (nt 2547-2811) expressed and purified as a GST-fusion protein from bacteria
bound H3K4me2 chromatin relative to input chromatin [2]: 3.3 times of input material (2.5%)
Kd [3]: 2100 nM
preference for methylation state of H3K4 peptides [1]: preference for mono- and dimethylated H3K4 peptides
sequence selectivity on histone peptide panel [4]: only binds the methylated H3K4 peptides
binding to methylated H3K27-peptides [5]: no binding was observed
bound H3K4me1 chromatin relative to input chromatin [6]: 4.4 times of input material (2.5%)
Kd [7]: 4000 nM
binding to the H3K4me3 peptide (H3K4me3 peptide): close to background levels
pull down of H3K4 methylated chromatin (western blot signal) [8]: Strong signals
Kd [9]: 1150 nM
binding of chromatin associated with ASHH2-regulated genes (real-time PCR) [10]: significantly above background levels
